Our source for the Kd values is paper PMC5570508.

Test in all cases: fluorescence polarisation; titration: 5-FAM-labeled protein at 0.5 or 1 μM titrated with unlabeled protein; 20°C; analysis buffer (20 mM NaH2PO4, 50 mM NaCl, 1 mM DTT pH 7); single site binding model
Test [1] addresses PfEMP1 ATS of variant PFF0845c, fluorescently labeled (H159C) (P. falciparum).
Test [2] deals with KAHRP K2, fluorescently labeled (C414A/C450A) (P. falciparum).
Test [3] has as its target PfEMP1 Acidic Terminal Segment (ATS) of variant PF08_0141, fluorescently labeled (Q150C) (P. falciparum).

spectrin β chain domains 10–14, sequence (P11277 1272-1804): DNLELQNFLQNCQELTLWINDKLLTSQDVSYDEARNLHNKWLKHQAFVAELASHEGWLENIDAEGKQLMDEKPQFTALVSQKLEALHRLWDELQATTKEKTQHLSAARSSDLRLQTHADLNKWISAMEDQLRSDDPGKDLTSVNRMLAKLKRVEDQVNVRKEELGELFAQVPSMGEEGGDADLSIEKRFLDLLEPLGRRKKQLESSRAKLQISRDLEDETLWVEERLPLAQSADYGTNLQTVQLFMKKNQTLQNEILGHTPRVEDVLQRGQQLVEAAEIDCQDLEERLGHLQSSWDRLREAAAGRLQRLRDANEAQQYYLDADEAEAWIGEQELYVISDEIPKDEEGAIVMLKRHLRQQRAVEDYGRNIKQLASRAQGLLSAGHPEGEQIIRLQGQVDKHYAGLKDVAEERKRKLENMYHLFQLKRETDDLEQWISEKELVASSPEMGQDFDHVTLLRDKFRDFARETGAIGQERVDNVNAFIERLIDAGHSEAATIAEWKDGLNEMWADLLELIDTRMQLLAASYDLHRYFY
spectrin α chain domain 17, sequence (P02549 1704-1828): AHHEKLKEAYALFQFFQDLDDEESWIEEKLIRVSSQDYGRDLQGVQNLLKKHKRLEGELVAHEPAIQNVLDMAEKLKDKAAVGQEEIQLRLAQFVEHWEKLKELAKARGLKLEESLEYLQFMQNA
spectrin α chain domains 12–16, sequence (P02549 1174-1716): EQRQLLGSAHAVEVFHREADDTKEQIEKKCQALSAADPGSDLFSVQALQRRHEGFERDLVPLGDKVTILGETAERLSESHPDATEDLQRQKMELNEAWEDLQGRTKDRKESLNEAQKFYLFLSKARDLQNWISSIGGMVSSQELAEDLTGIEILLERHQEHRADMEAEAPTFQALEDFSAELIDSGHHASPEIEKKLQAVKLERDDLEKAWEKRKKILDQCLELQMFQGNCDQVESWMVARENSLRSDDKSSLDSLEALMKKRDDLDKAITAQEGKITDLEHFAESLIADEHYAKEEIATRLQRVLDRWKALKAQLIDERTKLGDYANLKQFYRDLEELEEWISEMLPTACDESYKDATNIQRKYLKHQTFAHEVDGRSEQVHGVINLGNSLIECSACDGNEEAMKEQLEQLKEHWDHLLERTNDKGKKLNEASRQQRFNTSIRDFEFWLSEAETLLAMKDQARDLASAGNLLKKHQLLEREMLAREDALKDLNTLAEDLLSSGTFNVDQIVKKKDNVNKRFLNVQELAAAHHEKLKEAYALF
α spectrin construct spanning domains 17 to the protein C-terminus, sequence (P02549 1704-2395): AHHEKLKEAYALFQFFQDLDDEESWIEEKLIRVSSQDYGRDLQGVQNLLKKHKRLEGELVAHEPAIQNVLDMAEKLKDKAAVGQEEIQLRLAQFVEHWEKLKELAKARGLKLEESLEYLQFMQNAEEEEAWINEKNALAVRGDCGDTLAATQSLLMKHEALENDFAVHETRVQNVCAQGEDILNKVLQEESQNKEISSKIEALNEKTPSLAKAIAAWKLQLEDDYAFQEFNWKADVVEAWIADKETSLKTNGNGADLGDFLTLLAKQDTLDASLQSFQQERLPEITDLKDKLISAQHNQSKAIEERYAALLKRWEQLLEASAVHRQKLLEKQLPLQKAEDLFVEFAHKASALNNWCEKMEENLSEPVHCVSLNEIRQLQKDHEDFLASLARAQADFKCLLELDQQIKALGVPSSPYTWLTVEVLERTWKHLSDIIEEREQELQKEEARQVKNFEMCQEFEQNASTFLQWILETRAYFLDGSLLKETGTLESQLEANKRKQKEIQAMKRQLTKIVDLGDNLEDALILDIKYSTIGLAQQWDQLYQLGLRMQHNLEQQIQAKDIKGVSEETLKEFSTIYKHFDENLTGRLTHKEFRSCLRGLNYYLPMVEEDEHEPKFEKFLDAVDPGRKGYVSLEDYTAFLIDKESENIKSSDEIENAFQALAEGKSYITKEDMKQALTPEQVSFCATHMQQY

Broadly, the Kd is the free concentration of one partner at which half of the binding sites on the other are occupied at equilibrium, for simple one-to-one binding. Low readings indicate tighter binding, high ones weaker binding. Take “spectrin α chain domain 17 (from UniProt P02549 1704-1828) (domain or fragment)”: in test [1], the Kd was determined as 24 µM. For “spectrin α chain domains 12–16 (from UniProt P02549 1174-1716) (domain or fragment)”, in test [2], the equilibrium dissociation constant (Kd) is 160 µM. Take “spectrin β chain domains 10–14 (from UniProt P11277 1272-1804) (domain or fragment)”: the Kd in test [2] was 50 µM. As for “α spectrin construct spanning domains 17 to the protein C-terminus (from UniProt P02549 1704-2395) (domain or fragment)”, the dissociation constant Kd in test [3] worked out at 59 µM.
